Changes are numbered by the printed parent chain.
T1: Cas12i-69 (N295R,N260R,G705R)
T1 chain: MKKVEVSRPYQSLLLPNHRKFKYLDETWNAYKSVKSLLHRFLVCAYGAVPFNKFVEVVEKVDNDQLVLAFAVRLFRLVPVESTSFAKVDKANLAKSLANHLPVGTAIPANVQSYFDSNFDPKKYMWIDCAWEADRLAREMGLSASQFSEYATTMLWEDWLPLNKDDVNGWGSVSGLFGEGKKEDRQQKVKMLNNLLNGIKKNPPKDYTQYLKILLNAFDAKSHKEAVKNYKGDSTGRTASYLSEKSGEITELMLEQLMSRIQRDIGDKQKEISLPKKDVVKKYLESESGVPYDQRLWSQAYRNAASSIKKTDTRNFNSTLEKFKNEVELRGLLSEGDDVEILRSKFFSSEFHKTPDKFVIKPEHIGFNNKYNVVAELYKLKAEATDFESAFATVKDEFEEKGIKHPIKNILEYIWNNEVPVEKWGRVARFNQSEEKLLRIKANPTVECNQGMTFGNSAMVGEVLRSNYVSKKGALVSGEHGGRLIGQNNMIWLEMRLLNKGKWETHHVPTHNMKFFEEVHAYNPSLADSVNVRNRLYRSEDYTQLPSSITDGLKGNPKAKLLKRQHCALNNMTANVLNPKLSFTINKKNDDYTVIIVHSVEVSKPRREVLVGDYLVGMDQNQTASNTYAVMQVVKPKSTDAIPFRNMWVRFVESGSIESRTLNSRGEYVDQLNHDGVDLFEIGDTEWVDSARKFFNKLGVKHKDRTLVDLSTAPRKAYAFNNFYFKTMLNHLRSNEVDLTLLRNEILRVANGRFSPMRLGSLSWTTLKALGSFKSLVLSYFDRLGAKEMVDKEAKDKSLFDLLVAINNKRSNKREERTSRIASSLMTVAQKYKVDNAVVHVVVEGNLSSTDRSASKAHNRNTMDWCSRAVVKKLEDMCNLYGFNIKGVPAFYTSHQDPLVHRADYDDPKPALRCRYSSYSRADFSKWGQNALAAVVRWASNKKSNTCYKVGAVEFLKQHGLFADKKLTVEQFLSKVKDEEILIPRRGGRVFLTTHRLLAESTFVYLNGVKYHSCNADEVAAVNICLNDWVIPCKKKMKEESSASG

T2: Cas12i-135 (N295R,N260R,G705R,L475R)
T2 chain: T1 chain with L475R

B1: gRNA-HBG ; HBG target (ssRNA ; dsDNA)
RNA: AGAGAAUGUGUGCAUAGUCACACACAAGGCAAACUUGACCAAU
DNA 1: ACAAGGCAAACTTGACCAAT
DNA 2: ATTGGTCAAGTTTGCCTTGT
B2: gRNA-TTR ; TTR target (ssRNA ; dsDNA)
RNA: AGAGAAUGUGUGCAUAGUCACACCAGUAAGAUUUGGUGUCUAU
DNA 1: CAGTAAGATTTGGTGTCTAT
DNA 2: ATAGACACCAAATCTTACTG

Assays:
[1] = biological target: T1, Cas12i-69; test: cell_activity; 293T indels; editing >3%
Method: (§1) Plating: The 293T cell line was plated when the confluence reached 70-80%, and the number of cells seeded in a 24-well plate was 5*10\hat{ }5 cells/well.
(§2) Transfection: After 12-14 hours of plating, transfection was performed. 100 μl of Opti-MEM, 1.5 μl of PEI (Yisheng Bio, Polyethylenimine Linear (PEI) MW25000), 250 ng of the mutant clone plasmid from Example 2, and 250 ng of gRNA plasmid for targeting endogenous genes were added to each well of a 24-well plate. The mixture was incubated at room temperature for 20 minutes and then added to 293T cells for transfection. After transfection overnight, the medium was replaced with fresh medium and cultured for the next period.
(§3) DNA extraction, PCR amplification, and Sanger sequencing: After culturing for 72 hours, cells were washed with PBS, and then 100 μl of cell lysis buffer (Viagen, DirectPCR® Lysis Reagent (Cell)) was added for lysis to obtain a lysate containing genomic DNA. The genomic DNA was amplified in the region near the target sequence, and the PCR product was sent to a sequencing company for Sanger sequencing.

[2] = biological target: T2, Cas12i-135; test: cell_activity; 293T indels
Method: as §1, §2, §3

Row | Binder | relative indel editing efficiency [1] | relative indel editing efficiency [2]
1 | B1 | 1.27 fold of wild type | 
2 | B2 |  | 1.73 fold of Cas12i-69

Reference: patent US20260250651, “CAS12 PROTEINS AND USES THEREOF” (GUANGZHOU REFORGENE MEDICINE CO., LTD., published 2026)
